Drawing on the supplement of paper PMC10567573, this text covers protein stability index for 53 sequences.

± gives the standard deviation.

This series in a line: protein stability index of a GFP-peptide fusion (GPS, HEK-293T) (PSI 1-6); higher = more stable.
Setting [1] is: treatment: DMSO, c terminus: a fixed tail appended.
Where [2] appears, read: treatment: MLN4924 1 uM, 8 h, c terminus: a fixed tail appended.
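Note: 24-mer peptide tiles fused after GFP, lentivirally expressed, FACS-sorted into six equal bins by GFP/DsRed ratio, decoded by Illumina sequencing, PSI is the read-weighted mean bin number.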

Sequence PEYREWNPELIKPKKLLNPVKASR [FAM107A] gave a protein stability index under setting [1] of 3.89 ± 0.13 and a protein stability index under setting [2] of 4.09 ± 0.39.

With PGGPGAMTESLEASEFLEQSMSQT [RSPH3], the protein stability index is 5.27 ± 0.28 under setting [1] and 5.16 ± 0.17 under setting [2].

For PGNPSLHSRFVELSEAYRVLSREQ [DNAJC4], the protein stability index under setting [1] is 3.68 ± 0.44 and the protein stability index under setting [2] was 3.81 ± 0.21.

For PGPGSGPGSGPGHGSGSHPGPASG [SPAG8], the protein stability index stood at 5.08 ± 0.3 under setting [1] and 4.97 ± 0.26 under setting [2].

Turning to PGSQTAVKNSNRYDVEMTDELVGL [FBXO34], the protein stability index was 4.98 ± 0.12 under setting [1] and 4.93 ± 0.27 under setting [2].

PHDRSQGDWAPPPEGGMEQALAGA [ZNF263]: the protein stability index runs as follows: under setting [1], 4.85 ± 0.26; under setting [2], 4.83 ± 0.31.

As for PHQREKIDKEIELHRILHHKHVVQ [PLK2], the protein stability index under setting [1] came to 3.48 ± 0.19 and the protein stability index under setting [2] worked out at 3.73 ± 0.34.

Take PHVCSLCGKAFYKKYRLTEHERAH [ZNF649]: the protein stability index was found to be 4.54 ± 0.24 under setting [1] and 4.66 ± 0.55 under setting [2].

Turning to PIHTIILNPHVHLVGDDAACIAYI [CAMK2D], the protein stability index is, setting by setting: under setting [1], 2 ± 0.45; under setting [2], 3.12 ± 1.6.

As for PIRSRRALPPLRTRSKSDPVLHPS [FAM189A2], the protein stability index runs as follows: under setting [1], 4.9 ± 0.17; under setting [2], 4.94 ± 0.16.

Regarding PLHAPEAYFPYFKKHNVTAVVRLN [CDC14A], the protein stability index reads like this: under setting [1], 2.17 ± 0.094; under setting [2], 2.08 ± 0.37.

For the sequence PLLHKDSASLEVVKKDHVALQVPR [CBY2], the protein stability index is 4.31 ± 0.095 under setting [1] and 4.3 ± 0.49 under setting [2].

PLRPLLGFRESDSAKPASLRLLQH [C6orf223] gave a protein stability index under setting [1] of 3.41 ± 0.39 and a protein stability index under setting [2] of 3.6 ± 0.27.

Consider PMDVYETGIEYIVAQGPTNQGLNV [ADAMTSL2], for which the protein stability index runs as follows: under setting [1], 3.19 ± 0.68; under setting [2], 3.54 ± 0.39.

With PMMKLKRHFVAQKYKKQIDHMYH [ACSBG2], the protein stability index by setting is: (treatment: DMSO, c terminus: native) 2.7 ± 0.32; (treatment: MLN4924 1 uM, 8 h, c terminus: native) 2.75 ± 0.32.

As for PMNRRNILVMKHNYSQDAADACDI [NETO1], the protein stability index reads like this: under setting [1], 3.59 ± 0.11; under setting [2], 3.8 ± 0.27.

PNPPTLQEAGLSHTEVLFVQDLTD [FAF2]: the protein stability index is 4.54 ± 0.27 under setting [1] and 4.64 ± 0.16 under setting [2].

With PNRFLRGHRPPPARSGHRCVADNT [KLHDC10], the protein stability index runs as follows: under setting [1], 4.04 ± 0.2; under setting [2], 4.32 ± 0.34.

Turning to PNYLANPAFPFIYTPTAEDSAQMQ [ANKRD40], the protein stability index is, setting by setting: under setting [1], 3.85 ± 0.28; under setting [2], 4.08 ± 0.26.

PPETSLPYKWVVEAANLLIPAVGS [MYBL2]: the protein stability index reads like this: under setting [1], 2.41 ± 0.42; under setting [2], 2.27 ± 0.29.

The sequence PPHREGEAAGGDHETESTSDKETD [CDS1] showed a protein stability index under setting [1] of 5.67 ± 0.31 and a protein stability index under setting [2] of 5.58 ± 0.57.

As to PPHRRRLLFACSPPPASQPVVKAL [CDC25A], the protein stability index runs as follows: under setting [1], 2.64 ± 0.22; under setting [2], 2.98 ± 0.1.

As to PPKKPSNWRRKHEEFIATIRAAKG [ZC2HC1A], the protein stability index was determined as 3.65 ± 0.15 under setting [1] and 3.82 ± 0.14 under setting [2].

Consider PPQLRPGAPTSLQTEPQDRSPAPM [BCL2L11], for which the protein stability index under setting [2] came to 5.18 ± 0.077.

On to PQKSLFFHHIPSTCQRVNGIKVQN [SLC19A2], for which the protein stability index reads like this: under setting [1], 2.61 ± 0.17; under setting [2], 2.78 ± 0.27.

Consider PQYAERLLSGAFKKRRLPPVHIHP [FOXJ1], for which the protein stability index is 2.76 ± 0.22 under setting [1] and 2.9 ± 0.1 under setting [2].

As to PRGQEGSRQDKPLSPAGSSQEAAD [YJU2B], the protein stability index was 5.54 ± 0.079 under setting [1] and 5.48 ± 0.2 under setting [2].

Take PRSTVRQKVASNHSPFSSESRALS [TBX5]: the protein stability index runs as follows: under setting [1], 4.11 ± 0.25; under setting [2], 4.15 ± 0.19.

On to PSLGPALSTGPRGLCAMPQTGDAF [VENTX], for which the protein stability index came out at 3.64 ± 0.089 under setting [1] and 3.6 ± 0.17 under setting [2].

PSNFLEIDVSNPQTVGVGRGRFTT [SNX3] came in with a protein stability index under setting [1] of 3.84 ± 0.29 and a protein stability index under setting [2] of 3.8 ± 0.59.

Regarding PSTYGGGLSVSSRFSSGGACGLGG [KRT16], the protein stability index runs as follows: under setting [1], 3.21 ± 0.21; under setting [2], 3.44 ± 0.2.

PSVPCTPAPQVGTQIRTITEEIRD [KRT36]: the protein stability index is, setting by setting: under setting [1], 5.07 ± 0.36; under setting [2], 5.22 ± 0.24.

Consider PTHLSNGQMSTPETPQPSPPGGSG [HNF4A], for which the protein stability index runs as follows: under setting [1], 5.15 ± 0.15; under setting [2], 4.98 ± 0.24.

PTMHLESPALQVMGPAQEAPVAEA [ZNF449]: the protein stability index was found to be 5.22 ± 0.17 under setting [1] and 5.21 ± 0.07 under setting [2].

Take PVENFFVKCNGALINTSDTVQHGA [SDE2]: the protein stability index runs as follows: under setting [1], 3.07 ± 0.12; under setting [2], 3.08 ± 0.26.

Turning to PVFNAMFEHEMEESKKNRVEINDL [SPOPL], the protein stability index is 4.26 ± 0.32 under setting [1] and 4.69 ± 0.21 under setting [2].

Consider PVIEELTNAGFLQTESELQELSEV [FAN1], for which the protein stability index was determined as 4.87 ± 0.1 under setting [1] and 4.92 ± 0.16 under setting [2].

Regarding PVNPELTAGPITGLVYRLNRFRVE [TRIM43], the protein stability index under setting [1] was 2.71 ± 0.29 and the protein stability index under setting [2] came out at 2.85 ± 0.33.

In the case of PVPILEKLPLQIDCLAAWEEWLLV [VPS39], the protein stability index by setting is: under setting [1], 2.24 ± 0.19; under setting [2], 2.18 ± 0.27.

As to PVSMEMDNHMSDKDESCYDNAEAA [INTS3], the protein stability index under setting [1] was 5.53 ± 0.36 and the protein stability index under setting [2] worked out at 5.53 ± 0.23.

With PVTQIGFEAPPLQGQAAAPASGSG [TRIM55], the protein stability index by setting is: under setting [1], 5.14 ± 0.42; under setting [2], 5.22 ± 0.14.

Consider PYKWVVEAANLLIPAVGSSLSEAL [MYBL2], for which the protein stability index is 2.88 ± 0.32 under setting [1] and 2.63 ± 0.67 under setting [2].

Consider QAQGARAGGSARRPDTGDDAAGHG [GMCL1], for which the protein stability index runs as follows: under setting [1], 5.41 ± 0.4; under setting [2], 5.57 ± 0.35.

Take QARQFRTFHHPTYGSCYTVDGVWT [SCNN1D]: the protein stability index under setting [1] turned out to be 2.21 ± 0.19 and the protein stability index under setting [2] amounted to 2.3 ± 0.2.

On to QAWGSMLEVPAGSRLNLTGLGYFS [CCDC3], for which the protein stability index was found to be 2.35 ± 0.3 under setting [1] and 1.79 ± 0.2 under setting [2].

On to QCANKVLQHMKAVQADQERERQRR [LRRC59], for which the protein stability index worked out at 3.93 ± 0.4 under setting [1] and 4.17 ± 0.18 under setting [2].

On to QDDLTVVLNEEGICTQKCALNWTD [VPS39], for which the protein stability index by setting is: under setting [1], 4.04 ± 0.49; under setting [2], 4 ± 0.67.

Regarding QEDITKSLLVTELGSSRTPETVRM [IMPA1], the protein stability index runs as follows: under setting [1], 4.58 ± 0.12; under setting [2], 4.49 ± 0.34.

Turning to QEELPALLKALVSELSEHLRDPLT [FCHSD1], the protein stability index under setting [1] was 2.13 ± 0.31 and the protein stability index under setting [2] is 2.25 ± 0.071.

QEFAARAAKQLEYQQLEDDKLSQK [EPB41L3] showed a protein stability index under setting [1] of 5.17 ± 0.81.

Regarding QEHQSALEEAKQPKNDNVVIPECA [SMOC2], the protein stability index is 5.51 ± 0.23 under setting [1] and 5.46 ± 0.27 under setting [2].

Turning to QENQARTHVLSKEVQHLREEKSKQ [LRRC45], the protein stability index runs as follows: under setting [1], 5.2 ± 0.29; under setting [2], 5.36 ± 0.29.

For the sequence QEVTKLQQQVKTNGAGVTVLRREI [FBXO28], the protein stability index runs as follows: under setting [1], 3.97 ± 0.25; under setting [2], 4.03 ± 0.45.
